Experimental data published in article PMC4880302.

Legend:
[1] = target: RPM-1 chimeric HMPV/RSV F protein (HMPV F with the grafted RSV site A/II palivizumab/motavizumab epitope) (human metapneumovirus, B2 strain); assay: SEC; gel filtration of complexes made of RPM-1 and Fab
[2] = target: RPM-1 chimeric HMPV/RSV F protein (HMPV F with the grafted RSV site A/II palivizumab/motavizumab epitope) (human metapneumovirus, B2 strain); assay: SPR; BiOptix 404pi; F proteins captured on NiHC1000m chip through their C-terminal His tag to 120 RU; Fab injected at 300 to 0.14 nM, 100 ul/min; 10 mM HEPES pH 7.2, 150 mM NaCl, 0.005% Tween 20, 50 uM EDTA; simple Langmuir model

B1: motavizumab Fab (affinity-matured variant of palivizumab, anti-RSV F site II/A) (Fab, V domains shown)
VH: QVTLRESGPALVKPTQTLTLTCTFSGFSLSTAGMSVGWIRQPPGKALEWLADIWWDDKKHYNPSLKDRLTISKDTSKNQVVLKVTNMDPADTATYYCARDMIFNFYFDVWGQGTTVTVSS
VL: DIQMTQSPSTLSASVGDRVTITCSASSRVGYMHWYQQKPGKAPKLLIYDTSKLASGVPSRFSGSGSGTEFTLTISSLQPDDFATYYCFQGSGYPFTFGGGTKVEIK
stoichiometry N (Fabs per F trimer) [1]: 3
Kd [2]: 7.11 pM
koff [2]: 1.8e-05 s⁻¹
kon [2]: 2.41e+06 M⁻¹ s⁻¹
t1/2 [2]: 10.9 h
